Experimental data as given in US20250355001A1 (GTINVENT, published 2025).

Key:
[1] = molecular target: T1, full length human tau protein 2N4R (hT40) (human, UniProt P10636 1-758); assay: sandwich ELISA, hT40 titrated, S1D12 mAb capture, CB7 scAb at 1 µg/ml
T1 construct: recombinant; also called T441
Protocol: (§3) Four spiked samples were added to the first wells of designated rows and all samples were double diluted in PBS across the plate including the standard. […] Secondary antibody anti HuCk HRP was added and the reaction was developed and read as described previously. For ELISA #2, 20 nM dGAE was added to the first well and double diluted across the plate for standard curve plotting. As for ELISA #1, spiked samples of unknown protein concentrations were added to respective wells in doubling dilutions. […] For ELISA #3, a standard curve was plotted using average absorbance values obtained from binding events of hT40, dGA and dGAE all at starting concentration of 20 nM.

[2] = molecular target: T1, full length human tau protein 2N4R …; assay: SPR, scAb captured, tau analyte
How it was run: (§1)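 scAb captured on flow cell 2 of an antibody-coated chip, flow cell 1 as reference; tau analyte injected 120 s association, 420 s dissociation, glycine pH 2.0 regeneration, in multi-cycle or single-cycle kinetics format. Responses fitted to a 1:1 binding model for kinetics and affinity.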
Target sequence in this assay (P10636 other isoform, or with tags, fused parts or gaps limits assumed): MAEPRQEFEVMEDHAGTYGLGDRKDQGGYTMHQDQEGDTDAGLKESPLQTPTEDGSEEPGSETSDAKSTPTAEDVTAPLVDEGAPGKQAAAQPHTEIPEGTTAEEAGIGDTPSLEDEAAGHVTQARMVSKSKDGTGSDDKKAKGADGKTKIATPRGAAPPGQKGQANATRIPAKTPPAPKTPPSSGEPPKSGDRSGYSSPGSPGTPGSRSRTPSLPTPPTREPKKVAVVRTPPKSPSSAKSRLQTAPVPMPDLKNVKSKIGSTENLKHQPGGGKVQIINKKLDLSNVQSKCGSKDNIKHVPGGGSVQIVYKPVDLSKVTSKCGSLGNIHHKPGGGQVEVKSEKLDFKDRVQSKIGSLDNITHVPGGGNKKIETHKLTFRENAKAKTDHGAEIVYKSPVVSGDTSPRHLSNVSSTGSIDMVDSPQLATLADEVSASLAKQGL

[3] = molecular target: T1, full length human tau protein 2N4R …; assay: SPR, summary table
How it was run: as §1
Target sequence in this assay (P10636 other isoform, or with tags, fused parts or gaps limits assumed): as above

[4] = molecular target: T1, full length human tau protein 2N4R …; assay: Biacore
How it was run: as §1
Target sequence in this assay (P10636 other isoform, or with tags, fused parts or gaps limits assumed): as above

mouse tau = molecular target: T2, mouse tau (mouse, UniProt P10637 2-733); assay: sandwich ELISA on mouse plasma, S1D12 mAb capture
T2 construct: endogenous protein of mouse brain or plasma; also called endogenous mouse tau
T2 sequence (P10637 other isoform, or with tags, fused parts or gaps limits assumed): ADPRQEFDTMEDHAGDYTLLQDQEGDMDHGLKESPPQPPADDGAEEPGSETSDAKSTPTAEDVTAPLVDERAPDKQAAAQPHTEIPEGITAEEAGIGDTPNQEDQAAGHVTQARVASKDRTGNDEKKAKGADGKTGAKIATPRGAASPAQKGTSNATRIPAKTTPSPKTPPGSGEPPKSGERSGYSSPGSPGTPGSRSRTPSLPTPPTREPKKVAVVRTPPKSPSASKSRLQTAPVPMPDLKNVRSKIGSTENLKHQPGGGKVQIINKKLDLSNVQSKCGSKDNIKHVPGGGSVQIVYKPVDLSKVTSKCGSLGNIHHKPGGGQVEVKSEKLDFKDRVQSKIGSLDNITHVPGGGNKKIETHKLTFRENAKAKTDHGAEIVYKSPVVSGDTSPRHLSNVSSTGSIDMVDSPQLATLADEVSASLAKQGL
Protocol: After washing and blocking as normal, several known standard solutions were set up in triplicate starting at 20 ng/ml of the desired protein before double diluted in the remaining wells. Mouse samples were added to wells in duplicate with a blank in between each sample group. Line1 plasma was diluted 1:10 before addition to plate to account for its high concentration while other samples were diluted 1:2 to account for potential matrix effects. These samples were left to incubate at RT for 1 hour. HRP-conjugated secondary scAb (conjugation carried out according to manufacturer's guidelines, Abcam) was added to each well and left to incubate at RT for 1 hour. The ELISA was developed using SuperSignal ELISA Femto Substrate (Thermo Scientific) and total luminescence was read on Clariostar Plus plate reader (BMG Labtech). Tau concentrations were established using a 4-parameter fit on concentration curves generated from recombinant tau protein spiked into samples at known concentration. For WT and L66 hT40 was used as a calibrator while dGA was used for L1 calibration.

[5] = molecular target: T1, full length human tau protein 2N4R …; assay: sandwich ELISA, S1D12 mAb capture, scAb detection
How it was run: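 Read-out was HRP anti-HuCk with absorbance at 450 nm (positive above 0.3 after background subtraction) or chemiluminescence, including directly HRP-conjugated scAbs.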
Target sequence in this assay (P10636 other isoform, or with tags, fused parts or gaps limits assumed): as the sequence (P10636 other isoform, or with tags, fused parts or gaps limits assumed) above

tau fragment 1-49 = molecular target: T3, tau fragment 1-49 (human); assay: direct ELISA
T3 construct: also called Tau 1-49
T3 peptide: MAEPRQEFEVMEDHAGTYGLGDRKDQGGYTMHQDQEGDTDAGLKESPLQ

[6] = molecular target: T4, human tau (hT40) with P301S and G335D of Line 66 mice (human, UniProt P10636 1-758); assay: sandwich ELISA on brain homogenate, S1D12 mAb capture
T4 construct: transgene product in brain homogenate or plasma; also called L66 human tau
Protocol: All animals were female, 7-8 months old except Line 66+/+ which were 5 months old. […] For brain lysate preparation, half brains were sectioned into four and the individual sections were homogenised in 400 μl of ice cold RIPA buffer (Cell signalling Technology) containing protease and phosphatase inhibitors. Total protein concentrations for individual samples were established by BCA-assay and each sample was subsequently diluted to 1 mg/ml for future experiments.
Plate was washed as previously and then blocked for 1 hour at 37° C. in 2% MPBS. Brain homogenate samples (50 ng total protein) from each mouse type were added to the first wells and double diluted across the plate in PBS. These samples were left to incubate at RT for 1 hour. Various detection scAbs encompassing epitopes of interest were then added to the plate at 1 μg/ml and incubated for 1 h at RT. Secondary antibody used was anti-HuCk HRP and the assays were developed as described previously.

dGA (tau 297-390) [7] = molecular target: T5, dGA (tau 297-390) (human, UniProt P10636 614-707); assay: sandwich ELISA #1, S1D12 mAb capture, sample C
T5 sequence (P10636 614-707 limits assumed): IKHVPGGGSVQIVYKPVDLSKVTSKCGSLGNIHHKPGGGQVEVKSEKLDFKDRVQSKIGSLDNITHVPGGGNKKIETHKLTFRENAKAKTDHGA
Protocol: To this end, an experiment was set up to assess whether the concentrations of different tau species could be determined in spiked samples using various antibody pairings directed towards specific regions of the tau protein.
as §3

dGAE (tau 297-391) [8] = molecular target: T6, dGAE (tau 297-391) (human, UniProt P10636 614-708); assay: sandwich ELISA, dGAE titrated, S1D12 mAb capture
T6 construct: monomer; also called dGAE95
T6 sequence (P10636 614-708 limits assumed): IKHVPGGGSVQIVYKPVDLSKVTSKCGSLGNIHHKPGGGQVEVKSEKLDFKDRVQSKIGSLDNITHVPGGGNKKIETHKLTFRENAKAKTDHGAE

dGA (tau 297-390) [9] = molecular target: T5, dGA (tau 297-390); assay: direct ELISA
How it was run: (§2)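 Plates were coated with 1 μg/ml tau protein or truncated fragment, or with 5 μg/ml streptavidin followed by 1 μg/ml biotinylated 13mer peptide, then blocked with 2% MPBS. Anti-tau scAbs were added at a starting concentration and double diluted. Bound scAb was detected with HRP-conjugated anti-human C kappa by absorbance.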

[10] = molecular target: T1, full length human tau protein 2N4R …; assay: direct ELISA
How it was run: as §2

dGAE (tau 297-391) [11] = molecular target: T6, dGAE (tau 297-391); assay: Biacore, for dGAE
dGAE (tau 297-391) [12] = molecular target: T6, dGAE (tau 297-391); assay: SPR, scAb captured, tau analyte
How it was run: as §1

dGAE (tau 297-391) [13] = molecular target: T6, dGAE (tau 297-391); assay: ELISA
How it was run: as §2

[14] = molecular target: T1, full length human tau protein 2N4R …; assay: direct binding ELISA

B1: CB7 scAb (scFv, not shown: small tags and cut ends)
scFv: QVQLQESGPSLVKPSQTLSLTCTVSGFSLTNYRVGWVRQAPGKALEWVSNIRSGGTTWYNPALKSRLSITADTSKSQVSLSLSSVTTEDTAVYYCARDSSGDLYAYDYWGPGLLVTVSSEGKSSGASGESKVDDQAVLTQPSSVSRSLGQSVSMTCSGSSSNVGYGNYMAWFQQVPGSAPKLLIYGATSRASGVPDRFSGSRSGNTATLTISSLQAEDEADYYCASYDSTSGGVFGSGTRLTVLG
notes: scAb
For B1, the “EC50 (read off the curve)” value [1] was roughly 4 nM, the Kd [2] was 5.19 nM and the koff [2] was 0.000694 s⁻¹. The kon [2] was 133000 M⁻¹ s⁻¹, the Kd [3] was 5.19 nM and the Kd [4] was 5.2 nM. For the same binder, the binding result (mouse tau) was “no binding”, the LoD chemiluminescence detection [5] was 3.33 ng/mL and the LoD colourimetric detection [5] was 15 ng/mL. B1: binds (tau fragment 1-49); binds [6]; no binding (tested: 2 nM dGA) (dGA (tau 297-390) [7]).

B2: E2E8 scAb (scFv, not shown: small tags and cut ends)
scFv: QVQLQESGPSLVKPSQTLSLTCTVSGFSLTDRGVAWVRQAPGKALEWVGTMRSGGTIDYNPALKSRLSITRDTSKSQVFLSLSSVTTEDMAMYYCARGYLSGDRYAWGRGLLVTVSSEGKSSGASGESKVDDQAVLTQPSSVSKSLGQSVSIACSGSRSDIGYGNYVSWFQQIPGSAPKLLIYDTNTRASGVPDRFSGARSGNTATLTINSLQAEDEADYYCANIDSSRSHLFGSGTRLTVLG
notes: scAb
With B2 the “EC50 (read off the curve)” value (dGAE (tau 297-391) [8]) was roughly 0.7 nM, the binding result (dGA (tau 297-390) [9]) was “no binding (tested: 25 ug/ml)” and the binding result [10] was “no binding (tested: 25 ug/ml)”. For the same binder, the Kd (dGAE (tau 297-391) [11]) was 0.4 nM, the Kd (dGAE (tau 297-391) [12]) was 0.401 nM and the koff (dGAE (tau 297-391) [12]) was 0.000191 s⁻¹. The kon (dGAE (tau 297-391) [12]) was 477000 M⁻¹ s⁻¹.

B3: E2A6 scAb (scFv, not shown: small tags and cut ends)
scFv: QVQLQESGPSLVKPSQTLSLTCTVSGFSLTDWGVAWVRQAPGKALEWLGTMRSGGTTDDNPALKSRLSITRDTSKSQVSLSLSSVTTEDMAMYYCARGYLSGVHYAWGRGLLVTVSSEGKSSGASGESKVDDRVVRTQPSSVSKSLGQSVSITCSGSSSNVGAGNYVGWFQQVPGSAPKLLIYGATNRASGVPARFSGSKSGVTATLTITSLQAEDEADYYCASIDTSRSHIFGSGTRLTVLG
notes: scAb
B3: binds (dGAE (tau 297-391) [13]); no binding [14].
